Laboratory results from paper PMC3809846 (International journal of cancer. Journal international du …, 2012).
Where a chain is given by its changes, count along the chain named. No end group written: not given here.

Assays:
[1] = target: podoplanin expressed on brain tumor cells (Homo sapiens, UniProt Q86YL7); assay: flow cytometry on cells
[2] = target: T1, biotinylated podoplanin peptide (hpp38-51) (Homo sapiens, UniProt Q86YL7, also: biotin, position not given here); assay: SPR
T1 chain: EGGVAMPGAEDDVV

Sequence of podoplanin expressed on brain tumor cells (Q86YL7 23-162): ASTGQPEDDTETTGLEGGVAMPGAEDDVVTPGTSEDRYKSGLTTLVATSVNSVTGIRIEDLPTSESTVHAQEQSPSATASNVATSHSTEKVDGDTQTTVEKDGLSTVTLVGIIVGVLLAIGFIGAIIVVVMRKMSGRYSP

B1: NZ-1 monoclonal antibody (antibody, V domains shown)
VH: EVQLVESGGGLVQPGRSLKLSCAASGFTFSNYGMAWVRQTPTKGLEWIASISAGGDKTYYGDSVKGRFSISRDNAKTTHYLQMDSLRSEDTATYYCAKTSRVYFDYWGQGVMVTVSS
VL: QFVLTQPNSVSTNLGSTVKLSCKRSTGNIGSNYVNWYQQHEGRSPTTMIYRDDKRPDGVPDRFSGSIDRSSNSALLTINNVQTEDEADYFCHSYSSGIVFGGGTKLTVL
binding result [1]: binds

B2: NZ-1-(scdsFv) (scFv, V domains shown)
VH: B1 VH with G44C
VL: B1 VL with G103C
Ka [2]: 4.8e+07 M⁻¹
